Results: publication PMC9808567

T1: PRPF39 full-length (human, UniProt Q86UA1 1-669)
T1 sequence: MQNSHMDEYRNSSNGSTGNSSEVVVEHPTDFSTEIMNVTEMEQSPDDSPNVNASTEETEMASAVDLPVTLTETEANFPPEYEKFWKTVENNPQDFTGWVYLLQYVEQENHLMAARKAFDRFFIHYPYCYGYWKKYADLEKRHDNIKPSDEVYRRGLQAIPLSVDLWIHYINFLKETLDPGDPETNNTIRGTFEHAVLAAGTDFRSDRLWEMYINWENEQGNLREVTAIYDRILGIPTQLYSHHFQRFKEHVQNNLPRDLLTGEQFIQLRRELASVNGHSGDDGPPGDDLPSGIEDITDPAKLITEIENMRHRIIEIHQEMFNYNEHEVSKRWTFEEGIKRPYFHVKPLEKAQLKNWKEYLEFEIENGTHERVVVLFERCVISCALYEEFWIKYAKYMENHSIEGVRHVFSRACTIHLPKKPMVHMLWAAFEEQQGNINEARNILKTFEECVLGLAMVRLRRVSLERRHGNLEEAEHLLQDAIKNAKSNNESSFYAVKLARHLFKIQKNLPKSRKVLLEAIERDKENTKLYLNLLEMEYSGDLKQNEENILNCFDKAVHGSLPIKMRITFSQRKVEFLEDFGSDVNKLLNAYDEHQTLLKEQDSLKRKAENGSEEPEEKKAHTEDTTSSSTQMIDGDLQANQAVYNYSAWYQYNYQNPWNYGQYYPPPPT

T2: PRPF39 NTD (human, UniProt Q86UA1 1-296)
T2 sequence: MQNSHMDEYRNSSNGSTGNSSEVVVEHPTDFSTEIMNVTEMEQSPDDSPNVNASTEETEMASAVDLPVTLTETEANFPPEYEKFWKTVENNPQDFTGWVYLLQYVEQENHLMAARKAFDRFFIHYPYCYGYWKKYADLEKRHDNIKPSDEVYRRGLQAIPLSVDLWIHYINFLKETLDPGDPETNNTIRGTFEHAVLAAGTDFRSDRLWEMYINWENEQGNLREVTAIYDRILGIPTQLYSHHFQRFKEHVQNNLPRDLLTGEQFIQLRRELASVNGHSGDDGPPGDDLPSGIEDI

T3: PRPF39 CTD (human, UniProt Q86UA1 297-669)
T3 sequence: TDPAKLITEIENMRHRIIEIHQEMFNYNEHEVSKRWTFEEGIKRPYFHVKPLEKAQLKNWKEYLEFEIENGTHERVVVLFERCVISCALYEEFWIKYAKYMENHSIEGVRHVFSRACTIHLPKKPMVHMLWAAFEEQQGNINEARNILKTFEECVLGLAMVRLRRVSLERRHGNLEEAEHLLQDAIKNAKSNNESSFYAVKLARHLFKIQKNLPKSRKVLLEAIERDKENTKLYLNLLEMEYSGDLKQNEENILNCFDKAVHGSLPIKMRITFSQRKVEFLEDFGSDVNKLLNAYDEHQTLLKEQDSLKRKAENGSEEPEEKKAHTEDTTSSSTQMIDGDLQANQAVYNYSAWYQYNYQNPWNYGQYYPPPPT


Assays:
Assay in all cases: EMSA
[1] = biological target: T1, PRPF39 full-length
[2] = biological target: T2, PRPF39 NTD
[3] = biological target: T3, PRPF39 CTD

Row | Binder | Kd [1] [nM] | binding result [2] | binding result [3]
1 | GGCCCCCCGG (ssRNA) [GC-rich RNA oligo] | 516 ± 256 |  | 
2 | AAAAAAAAAA (ssRNA) [10 nt poly(A) RNA oligo] |  | no binding | no binding
